The record followed here is patent US20130029902A1 (PHARIS BIOTECH, published 2013).

The target of assay [1] is CXCR4 (UniProt P61073 1-352, limits assumed). Put plainly: cell-based or functional assay.
The target of assay [2] is T1, EGFP-hCXCR4 (human, UniProt P61073 1-352). Nature of the assay: competition with 100 nM CXCL12-TR on HEK293 cells expressing EGFP-hCXCR4, FRET. As for the experimental part: (§1) The CXCR4 receptor is stably transfected in Human Embryonic Kidney (HEK) cells as a fusion protein with the EGFP fluorescent protein fused to the extracellular amino-terminal part of the receptor (EGFP-CXCR4). The human chemokines CXCL12 and CXCL12-TexasRed were synthesized as described (Amara et al., 1999, JBC 274:23916-23925; Valenzuela-Fernandez, et al., 2001, JBC 276:26550-26558). Real-time fluorescence monitoring of ligand-receptor interactions was performed as followed: HEK293 cells expressing the fusion receptor, EGFP-hCXCR4, were harvested in phosphate-buffered saline supplemented with 5 mM EDTA, pH 7.4, centrifuged and resuspended in HEPES-bovine serum albumin buffer (10 mM HEPES, 137.5 mM NaCl, 1.25 mM MgCl2, 1.25 mM CaCl2, 6 mM KCl, 10 mM glucose, 0.4 mM NaH2PO4, 1% bovine serum albumin (w/v), pH 7.4) supplemented with protease inhibitors (40 μg/mL bestatin and bacitracin, 20 μg/mL phosphoramidon, 50 μg/mL chymostatin, and 1 μg/mL leupeptin). […] Time-based recordings of the fluorescence emitted at 510 nm (excitation at 470 nm) were performed at 21° C. using a spectrofluorimeter (fluorolog 2, Spex) and sampled every 0.3 s. Fluorescence binding measurements were initiated by adding at 30 seconds 100 nM of CXCL12-TR to 1 mL cell suspension. […] Then, CXCL12-TR (100 nM) was added and fluorescence was recorded until equilibrium was reached (300 sec). […]
T1 sequence (P61073 whole entry, the tested form may be a part): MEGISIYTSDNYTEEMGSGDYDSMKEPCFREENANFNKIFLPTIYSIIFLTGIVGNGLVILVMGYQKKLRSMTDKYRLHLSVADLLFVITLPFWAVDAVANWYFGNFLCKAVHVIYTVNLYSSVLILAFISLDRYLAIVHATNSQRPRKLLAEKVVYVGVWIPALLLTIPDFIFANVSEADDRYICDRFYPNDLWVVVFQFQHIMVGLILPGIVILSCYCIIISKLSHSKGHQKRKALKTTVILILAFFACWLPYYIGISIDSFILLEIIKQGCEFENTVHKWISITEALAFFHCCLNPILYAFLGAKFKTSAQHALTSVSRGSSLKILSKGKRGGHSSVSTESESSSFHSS

For assay [3], the target named is T1, EGFP-hCXCR4. Nature of the assay: competition with CXCL12-Tr on CXCR4 expressing HEK293 cells, FRET. The method, then:
as §1

B1: ALB408-423 (peptide)
peptide: LVRYTKKVPQVSTPTL
notes: also called Human circulating antiviral albumin fragment; wild type peptide
Regarding B1, in assay [1], the “IC50, HIV-1 NL4-3 infection of TZM-bl cells (fraction 31 from hemofiltrate)” value is 21.4 mg/L; the “IC50, X4 tropic HIV-1 and HIV-2 infection of TZM-bl cells” value is 10 to 20 µM; the “mean IC50, infection of TZM-bl cells by X4-tropic HIV-1 variants” value worked out at 24.2 mg/L. Besides, in assay [2], the EC50 (commonly the midpoint of the concentration-response curve) came to 8 µM and the Ki (in general, the equilibrium dissociation constant of an inhibitor or competing ligand from its target) worked out at 3 µM.

B2: ALB408-413 (peptide)
peptide: LVRYTK
notes: Synthetic fragment of human serum albumin
In the case of B2, the Kd (as a rule, the constant that tells how readily two partners part at equilibrium) in assay [3] was over 200 µM.
